From patent US20230011916A1 (BEIGENE, published 2023) come the findings set out here.

Like-named read-outs stand apart in the source and are kept apart here.

Test [1] concerns the target T1, full-length human OX40 expressed on HuT78 cells (HuT78/OX40) (human, UniProt P43489 29-277).
T1 sequence: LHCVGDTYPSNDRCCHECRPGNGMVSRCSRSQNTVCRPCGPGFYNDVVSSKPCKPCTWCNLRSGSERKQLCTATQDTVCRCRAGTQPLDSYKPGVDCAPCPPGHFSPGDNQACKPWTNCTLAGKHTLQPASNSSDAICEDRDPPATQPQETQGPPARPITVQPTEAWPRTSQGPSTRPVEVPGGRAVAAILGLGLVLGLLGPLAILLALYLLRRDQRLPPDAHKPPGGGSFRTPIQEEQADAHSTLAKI
Nature of the test: FACS; cells not named on the sheet, HuT78/OX40 cells as in Example 5. For orientation: In flow cytometry, cells or beads pass a laser one at a time.

Test [2] has as its target T2, recombinant OX40 protein with a His tag (Cat: 10481-H08H, Sino Biological) (UniProt P43489 29-216).
T2 construct: Bought protein; also called OX40-His (bought); not shown: His tag
T2 sequence (looked up): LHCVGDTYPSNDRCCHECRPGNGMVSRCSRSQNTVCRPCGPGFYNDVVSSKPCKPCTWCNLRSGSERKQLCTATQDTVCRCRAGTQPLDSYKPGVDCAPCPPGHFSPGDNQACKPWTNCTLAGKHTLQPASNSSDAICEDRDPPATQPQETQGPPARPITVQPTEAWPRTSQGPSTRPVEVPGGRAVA
Briefly: Biacore (SPR); antigen not named on the sheet, OX40-His as in Example 4.

The target in test [3] is T1, full-length human OX40 expressed on …. Nature of the test: FACS; cells not named on the sheet, HuT78/OX40 cells as in Example 5. This is another data set of the same source.
In test [4] the target is T2, recombinant OX40 protein with a His tag …. Briefly: Biacore (SPR); antigen not named on the sheet, OX40-His as in Example 4. The source holds these as a separate data set. (In general: SPR reads the build-up and loss of mass on a sensor chip optically.)
Test [5] has as its target T1, full-length human OX40 expressed on …. Briefly: flow cytometry on live HuT78/OX40 cells; Mean. On the procedure:
(§1) To evaluate the binding activity of anti-OX40 antibodies to bind OX40 expressed on the surface of live cells, HuT78 cells were transfected with human OX40 as described in Example 1 to create an OX40 expressing line. Live HuT78/OX40 cells were seeded in 96-well plate and were incubated with a serial dilution of various anti-OX40 antibodies. Goat anti-Human IgG-FITC (Cat: A0556, Beyotime) was used as a secondary antibody to detect antibody binding to the cell surface. EC₅₀ values for dose-dependent binding to human OX40 were determined by fitting the dose-response data to the four-parameter logistic model with GraphPad Prism.

Test [6] shares this target. Briefly: flow cytometry on live HuT78/OX40 cells; Test 1. How it is done: as §1
For test [7], the target named is T2, recombinant OX40 protein with a His tag …. Nature of the test: SPR, BIAcore T-200; antibody captured by anti-human IgG, OX40-His flowed; Mean. From the text:
(§2) The anti-OX40 antibodies were characterized for their binding kinetics and affinity by SPR assays using BIAcore™ T-200 (GE Life Sciences). Briefly, anti-human IgG antibody was immobilized on an activated CM5 biosensorchip (Cat: BR100530, GE Life Sciences). An antibody with human IgG Fc region was flowed over the chip surface and captured by anti-human IgG antibody. Then a serial dilution of recombinant OX40 protein with a His tag (Cat: 10481-H08H, Sino Biological) was flowed over the chip surface and changes in surface plasmon resonance signals were analyzed to calculate the association rates (ka) and dissociation rates (kd) by using the one-to-one Langmuir binding model (BIA Evaluation Software, GE Life Sciences). The equilibrium dissociation constant (KD) was calculated as the ratio kd/ka.

For test [8] the target is unchanged. Nature of the test: SPR, BIAcore T-200; antibody captured by anti-human IgG, OX40-His flowed; Test 1.
Source text: as §2

B1: 445-1-2(S10T/E81D/D70E) (antibody, human IgG1, V domains shown)
VH: QVQLVQSGAEVKKPGSSVKVSCKASGYKFTSYIIHWVRQAPGQGLEWMGYINPYNDGTRYNQKFQGRVTLTSDKSTSTAYMELSSLRSEDTAVYYCARGYYGSSYAMDYWGQGTTVTVSS
VL: DIQMTQSPSTLSASVGDRVTITCSASQGISNYLNWYQQKPGKAIKLLIYDTSTLYSGVPSRFSGSGSGTEYTLTISSLQPDDFATYYCQQYSKLPYTFGGGTKVEIK
What is called EC50 is the concentration at which the effect is half-maximal. Higher therefore signals a need for much substance. For orientation: Kd means the equilibrium constant for the complex coming apart. For orientation: koff means the first-order rate constant of dissociation. As a reminder, the kon is the rate constant with which the complex forms. In the case of B1, in test [1], the EC50 came out at 0.28 µg/mL and the “Top(MFI)” value is 510 MFI. In addition, in test [2], the dissociation constant Kd was determined as 14.9 nM, the koff was 0.0034 s⁻¹ and the kon was determined as 228000 M⁻¹ s⁻¹.

B2: 445-3(A61N-K63R)-3 (antibody, V domains shown)
VH: QVQLVQSGAEVKKPGSSVKVSCKASGYKFTSYIIHWVRQAPGQGLEWMGYINPYNEGTRYNQRFQGRVTLTADKSTSTAYMELSSLRSEDTAVYYCARGYYGSSYAMDYWGQGTTVTVSS
VL: DIQMTQSPSSLSASVGDRVTITCRASQGISNYLNWYQQKPDGAIKLLIYDASTLYSGVPSRFSGSGSGTDFTLTISSLQPEDFATYYCQQYSKLPYTFGGGTKVEIK
B2: in test [3], the EC50 amounted to 0.483 µg/mL and the “Top(MFI)” value was 1100 MFI. Moreover, in test [4], the Kd was 9.65 nM, the koff was determined as 0.00155 s⁻¹ and the association rate constant (kon) turned out to be 161000 M⁻¹ s⁻¹.

B3: 445-3(A61N-K28R)-3 (antibody, V domains shown)
VH: QVQLVQSGAEVKKPGSSVKVSCKASGYRFTSYIIHWVRQAPGQGLEWMGYINPYNEGTRYNQKFQGRVTLTADKSTSTAYMELSSLRSEDTAVYYCARGYYGSSYAMDYWGQGTTVTVSS
VL: DIQMTQSPSSLSASVGDRVTITCRASQGISNYLNWYQQKPDGAIKLLIYDASTLYSGVPSRFSGSGSGTDFTLTISSLQPEDFATYYCQQYSKLPYTFGGGTKVEIK
With B3, in test [3], the EC50 stood at 0.369 µg/mL and the “Top(MFI)” value was determined as 1080 MFI. In test [4], the Kd was found to be 7.35 nM, the koff stood at 0.00115 s⁻¹ and the association rate constant (kon) came out at 157000 M⁻¹ s⁻¹.

B4: 445-3(Q62E/Q65K)-3(S24R) (antibody, V domains shown)
VH: QVQLVQSGAEVKKPGSSVKVSCKASGYKFTSYIIHWVRQAPGQGLEWMGYINPYNEGTRYAEKFKGRVTLTADKSTSTAYMELSSLRSEDTAVYYCARGYYGSSYAMDYWGQGTTVTVSS
VL: DIQMTQSPSSLSASVGDRVTITCRASQGISNYLNWYQQKPGKAIKLLIYDASTLYSGVPSRFSGSGSGTDFTLTISSLQPEDFATYYCQQYSKLPYTFGGGTKVEIK
Take B4: in test [3], the EC50 stood at 0.318 µg/mL and the “Top(MFI)” value worked out at 790 MFI. Also, in test [4], the Kd amounted to 12.4 nM, the koff worked out at 0.00232 s⁻¹ and the kon came out at 187000 M⁻¹ s⁻¹.

B5: 445-3-3(G41D-K42G-S24R-K93R) (antibody, V domains shown)
VH: QVQLVQSGAEVKKPGSSVKVSCKASGYKFTSYIIHWVRQAPGQGLEWMGYINPYNEGTRYNQKFQGRVTLTADKSTSTAYMELSSLRSEDTAVYYCARGYYGSSYAMDYWGQGTTVTVSS
VL: DIQMTQSPSSLSASVGDRVTITCRASQGISNYLNWYQQKPDGAIKLLIYDASTLYSGVPSRFSGSGSGTDFTLTISSLQPEDFATYYCQQYSRLPYTFGGGTKVEIK
In the case of B5, in test [3], the EC50 came to 0.337 µg/mL and the “Top(MFI)” value came to 1050 MFI. Also, in test [4], the Kd was 7.9 nM, the koff was 0.00168 s⁻¹ and the kon came to 212000 M⁻¹ s⁻¹.

B6: 445-1-2(S24G) (antibody, human IgG1, V domains shown)
VH: QVQLVQSGAEVKKPGSSVKVSCKASGYKFTSYIIHWVRQAPGQGLEWMGYINPYNDGTRYNQKFQGRVTLTSDKSTSTAYMELSSLRSEDTAVYYCARGYYGSSYAMDYWGQGTTVTVSS
VL: DIQMTQSPSSLSASVGDRVTITCGASQGISNYLNWYQQKPGKAIKLLIYDTSTLYSGVPSRFSGSGSGTDYTLTISSLQPEDFATYYCQQYSKLPYTFGGGTKVEIK
As for B6, in test [1], the EC50 turned out to be 0.307 µg/mL and the “Top(MFI)” value stood at 470 MFI. Further, in test [2], the Kd turned out to be 16.2 nM, the dissociation rate constant (koff) worked out at 0.0036 s⁻¹ and the kon was 222000 M⁻¹ s⁻¹.

B7: 445-3(T30S)-3(S24R) (antibody, V domains shown)
VH: QVQLVQSGAEVKKPGSSVKVSCKASGYKFSSYIIHWVRQAPGQGLEWMGYINPYNEGTRYAQKFQGRVTLTADKSTSTAYMELSSLRSEDTAVYYCARGYYGSSYAMDYWGQGTTVTVSS
VL: DIQMTQSPSSLSASVGDRVTITCRASQGISNYLNWYQQKPGKAIKLLIYDASTLYSGVPSRFSGSGSGTDFTLTISSLQPEDFATYYCQQYSKLPYTFGGGTKVEIK
B7: in test [3], the EC50 came out at 0.405 µg/mL and the “Top(MFI)” value came out at 800 MFI. In test [4], the Kd worked out at 13.1 nM, the koff came to 0.00381 s⁻¹ and the kon amounted to 291000 M⁻¹ s⁻¹.

B8: 445-3 IgG4 (antibody, V domains shown)
VH: QVQLVQSGAEVKKPGSSVKVSCKASGYKFTSYIIHWVRQAPGQGLEWMGYINPYNEGTRYNQKFQGRVTLTADKSTSTAYMELSSLRSEDTAVYYCARGYYGSSYAMDYWGQGTTVTVSS
VL: DIQMTQSPSSLSASVGDRVTITCRASQGISNYLNWYQQKPDGAIKLLIYDASTLYSGVPSRFSGSGSGTDFTLTISSLQPEDFATYYCQQYSKLPYTFGGGTKVEIK
For B8, the EC50 in test [5] and in test [6] was 0.263 µg/mL each time. Also, in test [5], the “Top(MFI)” value is 892 MFI. The Ka in test [7] and in test [8] was 1e+08 M⁻¹ throughout. Further, the Kd in test [7] and in test [8] was 10 nM throughout.

B9: 445-3(Q62E)-3(S24R) (antibody, V domains shown)
VH: QVQLVQSGAEVKKPGSSVKVSCKASGYKFTSYIIHWVRQAPGQGLEWMGYINPYNEGTRYAEKFQGRVTLTADKSTSTAYMELSSLRSEDTAVYYCARGYYGSSYAMDYWGQGTTVTVSS
VL: DIQMTQSPSSLSASVGDRVTITCRASQGISNYLNWYQQKPGKAIKLLIYDASTLYSGVPSRFSGSGSGTDFTLTISSLQPEDFATYYCQQYSKLPYTFGGGTKVEIK
In the case of B9, in test [3], a half-maximal effect (EC50) was put at 0.363 µg/mL and the “Top(MFI)” value amounted to 760 MFI. Moreover, in test [4], the Kd came to 11.7 nM, the koff was 0.00227 s⁻¹ and the kon is 194000 M⁻¹ s⁻¹.

B10: 445-2(M48I)-1 (antibody, human IgG1, V domains shown)
VH: QVQLVQSGAEVKKPGSSVKVSCKASGYKFTSYIIHWVRQAPGQGLEWIGYINPYNDGTRYNQKFQGRVTLTSDKSTSTAYMELSSLRSEDTAVYYCARGYYGSSYAMDYWGQGTTVTVSS
VL: DIQMTQSPSSLSASVGDRVTITCSASQGISNYLNWYQQKPGKAIKLLIYDTSTLYSGVPSRFSGSGSGTDYTLTISSLQPEDFATYYCQQYSKLPYTFGGGTKVEIK
On to B10, for which, in test [1], the midpoint of the response, the EC50, lay at 0.353 µg/mL and the “Top(MFI)” value amounted to 480 MFI. Further, in test [2], the dissociation constant (Kd) stood at 15.5 nM, the koff is 0.00356 s⁻¹ and the kon turned out to be 230000 M⁻¹ s⁻¹.
